Patent US20220017636A1 (Amgen, published 2022)

How the values were obtained:
Assay in all cases: flow cytometry, peptide-loaded T2 cells;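 further: binding of single-chain Fv antibody constructs, raised in XenoMouse, to peptide-pulsed T2 cells measured by flow cytometry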
[1] = molecular target: T1, CNDP2 peptide complexed with HLA-A*02:01 on T2 cells (human)
T1 construct: whole, on cells; also called CNPD2
Description: (§1) Binding of pMAGE-HLA scFv constructs, generated from the XenoMouse, on peptide loaded T2 cells was evaluated by flow cytometry.

[2] = molecular target: T2, MB peptide complexed with HLA-A*02:01 on T2 cells (human)
T2 construct: whole, on cells
Description: as §1

[3] = molecular target: T3, DPYSL4 peptide complexed with HLA-A*02:01 on T2 cells (human)
T3 construct: whole, on cells
Description: as §1

[4] = molecular target: T4, KEA peptide complexed with HLA-A*02:01 on T2 cells (human)
T4 construct: whole, on cells
Description: as §1

[5] = molecular target: T5, MAGEB2 peptide … (SEQ ID NO: 1) complexed with HLA-A*02:01 on the cell surface (human)
T5 construct: whole, on cells; also called pMAGE-HLA; MAGEB2 pMHC
Description: as §1

[6] = molecular target: T6, SLK peptide complexed with HLA-A*02:01 on T2 cells (human)
T6 construct: whole, on cells
Description: as §1

[7] = molecular target: T7, MYOF peptide complexed with HLA-A*02:01 on T2 cells (human)
T7 construct: whole, on cells
Description: as §1

[8] = molecular target: T8, COX14 peptide complexed with HLA-A*02:01 on T2 cells (human)
T8 construct: whole, on cells
Description: as §1

[9] = molecular target: T9, STXBP5 peptide complexed with HLA-A*02:01 on T2 cells (human)
T9 construct: whole, on cells
Description: as §1

[10] = molecular target: T10, ADF peptide complexed with HLA-A*02:01 on T2 cells (human)
T10 construct: whole, on cells
Description: as §1

Row | Binder | Signal/background [1] | Signal/background [2] | Signal/background [3] | Signal/background [4] | Signal/background [5] | Signal/background [6] | Signal/background [7] | Signal/background [8] | Signal/background [9] | Signal/background [10]
1 | 18179-D7 (scFv, scFv in bacterial lysate, detected with anti-Flag M2) scFv: EVQLLESGGGLVQPGGSLRLSCAASGFTFSNAWMSWVRQAPGKGLEWVGRIKGNTYGGTTDYAAPVKGRFTISRDDSKNTLFLQMNSLKTEDTAVYYCTTPSYSGSYYNYFSVMDVWGQGTTVTVSSGGGGSGGGGSGGGGSELVMTQSPSSLSASVGDRVTITCRTSQSISSYLNWYQQKPGRAPKLLIFAASSLQGGVPSRFSGSGSGTDFTLTISSLQPEDFATYYCQQTYSMPFTFGPGTKVDIK | 1.1 | 1 | 1.1 | 1 | 281 | 1.1 | 1 | 1 | 1 | 1
2 | 18179-A7 (scFv, scFv in bacterial lysate, detected with anti-Flag M2) scFv: EVQLLESGGGLVKPGGSLRLSCAASGFTFSNAWMSWVRQAPGKGLEWVGRIKGNTYGGTTDYAAPVKGRFTISRDDSKNTLFLQMNSLKTEDTAVYYCTTPSYSGSYYNYFSVMDVWGQGTTVTVSSGGGGSGGGGSGGGGSELVMTQSPSSLSASVGDRVTITCRTSQSISSYLNWYQQKPGRAPKLLIFAASSLQGGVPSRFSGSGSGTDFTLTISSLQPEDFATYYCQQTYSMPFTFGPGTKVDIK | 1 | 1.1 | 1 | 0.9 | 267 | 1 | 1 | 1 | 1 | 1
3 | 18081-H11 (scFv, scFv in bacterial lysate, detected with anti-Flag M2) scFv: EVQLLESGPALVKPTQTLTLTCTFSGFSFTTHKMGVDWIRQPPGKALEWLALIYWNDDKRYSPSLQSRLTITKDTSKNQVVLTMTNMDPVDTATYYCAYRRYNWNYENWFDPWGQGTLVTVSSGGGGSGGGGSGGGGSELQMTQSPSSLSASVGDRVTITCQASQDISNYLNWYQQKPGKAPKLLIYAASSLQSGVPSRFSGSGSGTDFTLTISSLQPEDFATYYCQQSYTTPFTFGPGTKVEIK | 0.9 | 1 | 1 | 0.9 | 32 | 1.1 | 1.1 | 1 | 0.9 | 0.9
4 | 18182-H12 (scFv, scFv in bacterial lysate, detected with anti-Flag M2) scFv: EVQLLESGGGLVQPGGSLRLSCAASGFTFSSYAMSWVRQAPGKGLEWVSTISGSGGGTYYADSVKGRFTISRDNSKNTLYLQMNSLRAEDTAVYYCATGKGVHLGFDYWGQGTLVTVSSGGGGSGGGGSGGGGSELMLTQPHSVSVAPGQTARITCGGNNIGSKSVHWYQQKPGQAPVLVVYDDNDRPSGIPERFSGSNFGNTATLIISRVEAGDEADYYCQVWDSSSDHVVFGGGTKLTVL | 1 | 1.2 | 1 | 0.9 | 298 | 1 | 1.2 | 1.1 | 1 | 1
5 | 18179-G12 (scFv, scFv in bacterial lysate, detected with anti-Flag M2) scFv: EVQLLESGAEVKKPGASVKVSCKASGYTFTRNGLSWVRQAPGQGLEWMGWISGYNGDTNYAQKLQGRGTMTTDTSTSTAYMELRSLRSDDTAVYYCARGRATFDYWGQGTLVTVSSGGGGSGGGGSGGGGSELVMTQSPSSLSASVGDRVTITCRASQGISNYLAWYQQKPGKVPKLLISAASTLQSGVPSRFSGSGSGTDFTLTISSLQPEDVATYYCQKYNSAPFTFGPGTKLEIK | 0.8 | 0.9 | 1.1 | 0.9 | 42 | 1.1 | 0.9 | 1.2 | 0.9 | 1.1
6 | 18179-C1 (scFv, scFv in bacterial lysate, detected with anti-Flag M2) scFv: EVQLLESGAEVKKPGASVKVSCKASGYTFTRNGLSWVRQAPGQGLEWMGWISGYNGDTNYAQKLQGRGTMTTDTSTSTAYMELRSLRSDDTAVYYCARGRATFDYWGQGTLVTVSSGGGGSGGGGSGGGGSELVMTQSPSSLSASVGDRVTITCRASQGISNYLAWYQQKPGKVPKLLISAASTLQSGVPSRFSGSGSGTDFTLTISSLQPEDVATYYCQKYNSAPFTFGPGTKVDIK | 0.8 | 1 | 1 | 1 | 43 | 1 | 0.9 | 1 | 0.9 | 1.3
7 | 18081-E7 (scFv, scFv in bacterial lysate, detected with anti-Flag M2) scFv: EVQLLESGPGLVKPSETLSLTCTVSGDSISSSRYYWGWIRQPPGKGLEWIGSIYYSGSTYYNPSLKSRVTISVDTSKNQFSLKLSSVTAADTAVYYCARGIFGVITYFDYWGQGTLVTVSSGGGGSGGGGSGGGGSELVMTQTPDSLAVSLGERATINCKSSQSVLYSSNNKNYLAWYQQKPGQPPKLLIYWASTRESGVPDRFSGSGSGTDFTLTISSLQAEDVAVYYCQQYYSTPLTFGGGTKVEIK | 1 | 1 | 1.2 | 1 | 298 | 1.4 | 1.1 | 1.1 | 1.1 | 1

Results, then the binder that gave them:

Row | Signal/background [1] | Signal/background [2] | Signal/background [3] | Signal/background [4] | Signal/background [5] | Signal/background [6] | Signal/background [7] | Signal/background [8] | Signal/background [9] | Signal/background [10] | Binder
8 | 1 | 1 | 1.1 | 1 | 345 | 1 | 1.1 | 1 | 1 | 1 | 18179-D11 (scFv, scFv in bacterial lysate, detected with anti-Flag M2) scFv: EVQLLESGGGLVKPGGSLRLSCAASGFTFSNAWMSWVRQAPGKGLEWVGRIKGNTYGGTTDYAAPVKGRFTISRDDSKNTLFLQMNSLKTEDTAVYYCTTPSYSGSYYNYFSVMDVWGQGTTVTVSSGGGGSGGGGSGGGGSELQMTQSPSSLSASVGDRVTITCRTSQSISSYLNWYQQKPGRAPKLLIFAASSLQGGVPSRFSGSGSGTDFTLTISSLQPEDFATYYCQQTYSMPFTFGPGTKVDIK
9 | 1 | 1 | 1 | 1 | 368 | 1 | 1 | 1 | 1 | 1 | 18179-B12 (scFv, scFv in bacterial lysate, detected with anti-Flag M2) scFv: EVQLLESGGGLVQPGGSLRLSCAASGFTFSNAWMSWVRQAPGKGLEWVGRIKGNTYGGTTDYAAPVKGRFTISRDDSKNTLFLQMNSLKTEDTAVYYCTTPSNSGSYYNYFSVMDVWGQGTTVTVSSGGGGSGGGGSGGGGSELVMTQSPSSLSASVGDRVTITCRTSQSISSYLNWFQQKPGKAPKLLIFAASSLQSGVPSRFSGSGSGTDFTLTISSLQPEDFATYYCQQTYSMPFTFGPGTKVEIK
10 | 1 | 1.1 | 0.9 | 1 | 39 | 1.1 | 1 | 1 | 1 | 1 | 18089-C9 (scFv, scFv in bacterial lysate, detected with anti-Flag M2) scFv: EVQLLESGPTLVKPTQTLTLTCTFSGFSFTTHKMGVDWIRQPPGKALEWLALIYWNDDKRYSPSLQSRLTITKDTSKNQVVLTMTNMDPVDTATYYCAYRRYNWNYENWFDPWGQGTLVTVSSGGGGSGGGGSGGGGSELQMTQSPSSLSASVGDRVTITCRASQFISSYLNWYQQKPGKAPKLLIYAASSLQSGVPSRFSGRGSGTDFTLTISSLQPEDFATYYCQQSYSTPFTFGPGTKVEIK
11 | 1 | 1.2 | 1.1 | 1 | 78 | 1.2 | 1.1 | 1.1 | 1.1 | 1.1 | 18089-D11 (scFv, scFv in bacterial lysate, detected with anti-Flag M2) scFv: EVQLLESGPVLVKPTQTLTLTCTFSGFSFTTHKMGVDWIRQPPGKALEWLALIYWNDDKRYNPSLQSRLTITKDTSKNQVVLTMTNMDPVDTATYYCAYRRYNWNYENWFDPWGQGTLVTVSSGGGGSGGGGSGGGGSELVMTQSPSSLSASVGDRVTITCRASQSISNYFNWYQQKPGKAPKLLIYAASSLQSGVPSRFSGSGSGTDFTLTISSLQPEDFATYYCQQSYITPFTFGGGTKLEIK
12 | 1 | 1.1 | 1.1 | 1.1 | 153 | 1.1 | 1.1 | 1 | 1 | 1 | 18081-B9 (scFv, scFv in bacterial lysate, detected with anti-Flag M2) scFv: EVQLLESGPGLVKPSETLSLTCTVSGDSISSSRYYWGWIRQPPGKGLEWIGSIYYSGSTYYNPSLKSRVTISVDTSKNQFSLKLSSVTAADTAVYYCARGIFGVITYFDYWGQGTLVTVSSGGGGSGGGGSGGGGSELVMTQSPDSLAVSLGERATINCKSSQSVLYSSNNKNYLAWYQQKPGQPPKLLIYWASTRESGVPDRFSGSGSGTDFTLTISSLQAEDVAVYYCQQFYSTPITFGQGTRLEIK
